Measurements from the supplement of paper PMC10065799, “High-throughput profiling of sequence recognition by tyrosine kinases and SH2 domains using bacterial peptide display” (eLife, 2023).

Tests used:
[1] = test system: AncSZ; experiment: phosphorylation enrichment, bacterial display (enrichment ratio); higher = better substrate or ligand; peptides without Tyr show the background
[2] = biological target: EPHB1 (UniProt P54762); experiment: as above
[3] = biological target: EPHB2 (UniProt P29323); experiment: as above
[4] = biological target: FGFR1 (UniProt P11362); experiment: as above
[5] = biological target: FGFR3 (UniProt P22607); experiment: as above
[6] = test system: Fer (mouse); experiment: as above
[7] = biological target: Fes (UniProt P07332); experiment: as above
[8] = biological target: Fyn (UniProt P06241); experiment: as above
[9] = biological target: Hck (UniProt P08631); experiment: as above
[10] = biological target: Jak2 (UniProt O60674); experiment: as above
[11] = biological target: MERTK (UniProt Q12866); experiment: as above
[12] = test system: c-Abl (mouse); experiment: as above
[13] = test system: c-Src; experiment: as above
[14] = biological target: Grb2 SH2 (UniProt P62993); experiment: SH2 binding enrichment of the phosphorylated peptide, bacterial display (enrichment ratio); higher = better substrate or ligand; peptides without Tyr show the background
[15] = biological target: SHP2-C SH2; experiment: as above
[16] = biological target: c-Src SH2; experiment: as above
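Throughout, for SH2 binding enrichment of the phosphorylated peptide, bacterial display: peptide library displayed on the E. coli surface as eCPX fusions, selected cells deep-sequenced, score is each peptide's frequency after selection divided by its frequency in the input.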
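Throughout, for phosphorylation enrichment, bacterial display: 11-residue human phosphosite peptides and single-mutation variants displayed on the E. coli surface, counted by deep sequencing, each peptide's frequency after selection divided by its frequency in the unselected input library; frequency after pTyr selection over input frequency; kinase dosed for 20-30% of maximal phosphorylation in three min.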

Sequence of FGFR3 (P22607 whole entry, looked up): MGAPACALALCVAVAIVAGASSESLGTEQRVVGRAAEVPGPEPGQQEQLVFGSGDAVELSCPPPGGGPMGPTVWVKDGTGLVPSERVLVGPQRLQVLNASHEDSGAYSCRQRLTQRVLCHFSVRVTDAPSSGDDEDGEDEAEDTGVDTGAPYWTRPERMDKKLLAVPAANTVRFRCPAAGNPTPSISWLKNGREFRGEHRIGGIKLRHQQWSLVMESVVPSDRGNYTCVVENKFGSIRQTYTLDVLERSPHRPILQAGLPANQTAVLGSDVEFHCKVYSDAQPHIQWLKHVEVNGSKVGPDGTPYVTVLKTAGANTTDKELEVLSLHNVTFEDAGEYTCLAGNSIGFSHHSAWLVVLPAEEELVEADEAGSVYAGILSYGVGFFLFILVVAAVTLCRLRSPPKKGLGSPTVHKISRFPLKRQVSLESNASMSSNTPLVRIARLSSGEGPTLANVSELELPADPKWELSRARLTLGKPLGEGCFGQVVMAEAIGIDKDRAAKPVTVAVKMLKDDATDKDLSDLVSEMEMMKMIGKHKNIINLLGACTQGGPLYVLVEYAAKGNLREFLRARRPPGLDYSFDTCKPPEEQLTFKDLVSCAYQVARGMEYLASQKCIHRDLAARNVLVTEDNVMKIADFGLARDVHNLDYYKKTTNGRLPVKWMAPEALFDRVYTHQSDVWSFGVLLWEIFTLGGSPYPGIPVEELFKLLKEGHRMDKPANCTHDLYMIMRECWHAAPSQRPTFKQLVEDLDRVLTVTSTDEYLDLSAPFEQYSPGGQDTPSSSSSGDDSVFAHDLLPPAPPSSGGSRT
Sequence of Fyn (P06241 whole entry, looked up): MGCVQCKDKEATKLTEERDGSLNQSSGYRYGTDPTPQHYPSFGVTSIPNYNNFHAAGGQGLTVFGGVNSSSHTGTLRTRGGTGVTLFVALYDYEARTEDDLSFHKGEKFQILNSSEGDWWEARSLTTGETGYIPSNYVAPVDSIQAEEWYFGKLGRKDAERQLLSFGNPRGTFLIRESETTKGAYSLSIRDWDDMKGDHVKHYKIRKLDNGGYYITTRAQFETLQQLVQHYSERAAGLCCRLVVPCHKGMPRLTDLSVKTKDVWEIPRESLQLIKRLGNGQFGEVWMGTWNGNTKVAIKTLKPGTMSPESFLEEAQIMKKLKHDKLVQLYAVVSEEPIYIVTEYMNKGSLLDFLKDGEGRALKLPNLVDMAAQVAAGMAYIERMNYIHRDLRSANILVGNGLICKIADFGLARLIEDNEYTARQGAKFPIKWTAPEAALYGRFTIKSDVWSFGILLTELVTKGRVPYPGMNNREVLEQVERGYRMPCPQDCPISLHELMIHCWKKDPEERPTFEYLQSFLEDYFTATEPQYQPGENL
Sequence of Fes (P07332 whole entry, looked up): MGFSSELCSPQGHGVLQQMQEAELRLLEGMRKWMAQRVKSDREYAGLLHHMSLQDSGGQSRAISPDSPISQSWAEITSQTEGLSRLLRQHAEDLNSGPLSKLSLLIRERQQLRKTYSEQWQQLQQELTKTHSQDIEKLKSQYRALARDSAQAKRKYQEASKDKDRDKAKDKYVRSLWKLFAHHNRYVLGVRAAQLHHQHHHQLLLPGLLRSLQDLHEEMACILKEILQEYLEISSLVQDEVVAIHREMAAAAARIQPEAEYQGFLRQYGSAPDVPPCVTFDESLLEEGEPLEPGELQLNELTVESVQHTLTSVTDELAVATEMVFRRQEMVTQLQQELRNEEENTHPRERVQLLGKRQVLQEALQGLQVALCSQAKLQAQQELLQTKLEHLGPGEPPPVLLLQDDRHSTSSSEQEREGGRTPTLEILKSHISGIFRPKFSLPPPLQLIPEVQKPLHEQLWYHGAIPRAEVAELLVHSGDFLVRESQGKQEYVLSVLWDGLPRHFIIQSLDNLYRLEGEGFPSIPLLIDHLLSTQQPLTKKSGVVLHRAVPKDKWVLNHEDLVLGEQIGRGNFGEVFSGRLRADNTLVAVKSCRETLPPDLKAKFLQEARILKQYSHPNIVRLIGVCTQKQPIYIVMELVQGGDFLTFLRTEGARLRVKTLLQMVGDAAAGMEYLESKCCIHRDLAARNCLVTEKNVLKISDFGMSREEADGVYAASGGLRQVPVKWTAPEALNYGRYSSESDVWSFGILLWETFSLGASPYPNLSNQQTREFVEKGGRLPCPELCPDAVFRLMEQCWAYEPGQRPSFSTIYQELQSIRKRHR
Sequence of Jak2 (O60674 whole entry, looked up): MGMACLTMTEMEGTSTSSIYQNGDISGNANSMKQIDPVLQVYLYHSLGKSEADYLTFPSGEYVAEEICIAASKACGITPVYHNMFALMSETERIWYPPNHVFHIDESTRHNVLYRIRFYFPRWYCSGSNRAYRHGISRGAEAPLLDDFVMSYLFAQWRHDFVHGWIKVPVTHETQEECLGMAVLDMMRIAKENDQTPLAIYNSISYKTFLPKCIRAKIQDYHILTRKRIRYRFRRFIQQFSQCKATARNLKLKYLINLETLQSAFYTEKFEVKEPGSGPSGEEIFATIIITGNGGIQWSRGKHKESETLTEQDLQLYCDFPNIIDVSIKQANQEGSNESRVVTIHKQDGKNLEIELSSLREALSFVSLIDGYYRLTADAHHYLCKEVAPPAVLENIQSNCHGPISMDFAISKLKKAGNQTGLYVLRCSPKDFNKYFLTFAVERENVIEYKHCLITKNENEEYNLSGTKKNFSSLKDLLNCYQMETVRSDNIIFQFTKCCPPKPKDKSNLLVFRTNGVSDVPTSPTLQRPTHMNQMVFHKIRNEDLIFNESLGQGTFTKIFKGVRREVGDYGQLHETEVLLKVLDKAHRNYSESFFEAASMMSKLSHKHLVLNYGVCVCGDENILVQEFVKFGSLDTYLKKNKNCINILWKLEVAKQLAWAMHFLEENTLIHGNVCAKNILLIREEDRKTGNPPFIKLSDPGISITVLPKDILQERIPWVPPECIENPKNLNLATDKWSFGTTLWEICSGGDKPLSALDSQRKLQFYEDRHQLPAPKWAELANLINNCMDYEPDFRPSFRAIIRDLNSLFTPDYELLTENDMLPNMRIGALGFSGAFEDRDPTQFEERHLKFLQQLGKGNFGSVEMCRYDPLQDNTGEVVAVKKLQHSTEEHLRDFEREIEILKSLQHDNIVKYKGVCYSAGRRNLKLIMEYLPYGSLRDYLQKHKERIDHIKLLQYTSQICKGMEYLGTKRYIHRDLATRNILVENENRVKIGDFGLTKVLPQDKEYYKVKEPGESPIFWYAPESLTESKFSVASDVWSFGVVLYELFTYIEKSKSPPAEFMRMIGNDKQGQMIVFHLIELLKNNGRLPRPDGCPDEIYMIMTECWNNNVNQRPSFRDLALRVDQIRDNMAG
Sequence of Hck (P08631 whole entry, looked up): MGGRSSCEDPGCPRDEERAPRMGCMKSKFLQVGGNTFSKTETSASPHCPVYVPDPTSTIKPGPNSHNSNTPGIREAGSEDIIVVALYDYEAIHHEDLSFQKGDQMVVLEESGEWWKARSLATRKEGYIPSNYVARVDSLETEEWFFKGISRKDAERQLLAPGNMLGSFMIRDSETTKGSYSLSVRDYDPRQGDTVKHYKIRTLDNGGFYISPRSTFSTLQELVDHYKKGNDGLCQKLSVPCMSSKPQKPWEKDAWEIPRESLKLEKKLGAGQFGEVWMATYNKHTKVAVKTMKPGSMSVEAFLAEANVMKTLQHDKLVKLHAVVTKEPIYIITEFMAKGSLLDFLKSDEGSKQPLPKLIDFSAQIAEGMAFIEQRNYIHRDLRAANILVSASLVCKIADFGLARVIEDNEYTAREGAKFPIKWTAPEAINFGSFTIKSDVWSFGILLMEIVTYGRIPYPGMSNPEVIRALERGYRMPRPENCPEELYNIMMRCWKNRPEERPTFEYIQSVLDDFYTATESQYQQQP
Sequence of MERTK (Q12866 whole entry, looked up): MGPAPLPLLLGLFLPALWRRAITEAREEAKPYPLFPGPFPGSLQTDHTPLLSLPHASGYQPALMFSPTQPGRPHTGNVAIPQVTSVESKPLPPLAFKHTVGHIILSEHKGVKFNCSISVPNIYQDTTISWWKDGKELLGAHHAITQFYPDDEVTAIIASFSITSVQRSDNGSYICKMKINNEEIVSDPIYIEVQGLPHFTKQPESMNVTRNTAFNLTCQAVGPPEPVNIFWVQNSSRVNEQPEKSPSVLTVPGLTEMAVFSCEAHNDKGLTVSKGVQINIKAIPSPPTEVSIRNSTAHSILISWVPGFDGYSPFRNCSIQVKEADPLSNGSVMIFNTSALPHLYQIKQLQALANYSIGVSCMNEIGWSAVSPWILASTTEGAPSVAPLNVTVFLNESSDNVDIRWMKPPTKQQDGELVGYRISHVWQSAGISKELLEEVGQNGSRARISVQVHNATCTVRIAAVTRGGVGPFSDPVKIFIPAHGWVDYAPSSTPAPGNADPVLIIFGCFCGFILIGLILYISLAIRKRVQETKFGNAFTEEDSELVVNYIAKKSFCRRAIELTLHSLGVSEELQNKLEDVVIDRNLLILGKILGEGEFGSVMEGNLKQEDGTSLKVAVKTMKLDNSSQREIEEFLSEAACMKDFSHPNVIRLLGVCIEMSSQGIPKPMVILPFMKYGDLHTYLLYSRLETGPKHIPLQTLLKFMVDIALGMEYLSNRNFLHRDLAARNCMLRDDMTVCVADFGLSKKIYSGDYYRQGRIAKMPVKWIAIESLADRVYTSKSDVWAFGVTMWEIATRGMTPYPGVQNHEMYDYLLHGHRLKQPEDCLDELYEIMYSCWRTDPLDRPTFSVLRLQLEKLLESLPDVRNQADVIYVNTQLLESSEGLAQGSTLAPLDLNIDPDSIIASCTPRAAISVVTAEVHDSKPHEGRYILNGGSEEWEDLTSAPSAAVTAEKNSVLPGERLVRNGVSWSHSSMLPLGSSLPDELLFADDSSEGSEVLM
Sequence of Grb2 SH2 (P62993 whole entry, looked up): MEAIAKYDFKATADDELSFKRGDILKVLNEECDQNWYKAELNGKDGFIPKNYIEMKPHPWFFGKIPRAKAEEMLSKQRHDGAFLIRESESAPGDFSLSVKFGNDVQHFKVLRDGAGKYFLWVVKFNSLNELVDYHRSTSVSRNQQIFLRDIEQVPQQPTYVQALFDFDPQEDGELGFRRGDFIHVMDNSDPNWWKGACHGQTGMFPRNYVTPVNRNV

Row | Sequence | phosphorylation enrichment [1] | phosphorylation enrichment [2] | phosphorylation enrichment [3] | phosphorylation enrichment [4] | phosphorylation enrichment [5] | phosphorylation enrichment [6] | phosphorylation enrichment [7] | phosphorylation enrichment [8] | phosphorylation enrichment [9] | phosphorylation enrichment [10] | phosphorylation enrichment [11] | phosphorylation enrichment [12] | phosphorylation enrichment [13] | SH2 binding enrichment [14] | SH2 binding enrichment [15] | SH2 binding enrichment [16]
1 | GHPFAYDWISI [BEST1_Y227_L224P_YF] | 1.04 | 0.932 | 0.721 | 2.03 | 1.29 | 14.7 | 1.22 | 0.478 | 0.811 | 0.774 | 6.57 | 0.562 | 0.629 | 1.36 | 0.869 | 1.72
2 | GIKAAYEAERG [LMNA_Y81_L85R] | 0.566 | 0.344 | 0.363 | 0.403 | 0.487 | 0.365 | 0.755 | 0.329 | 0.406 | 0.517 | 0.347 | 0.475 | 0.344 | 0.83 | 0.685 | 0.553
3 | GIMEEYQLPYY [BMPR1A_Y453_V450M] | 5.83 | 0.748 | 0.795 | 2.23 | 1.57 | 0.942 | 1.4 | 1.4 | 0.998 | 1.28 | 0.398 | 1.25 | 3.76 | 0.845 | 0.44 | 5.46
4 | GIVEDYRPPLF [ACVRL1_Y421_F425L_YF] | 0.841 | 0.442 | 0.418 | 0.434 | 0.722 | 0.406 | 0.904 | 0.458 | 0.343 | 0.626 | 0.377 | 0.511 | 0.373 | 0.801 | 0.671 | 0.349
5 | GIVEEYQLPFF [BMPR1A_Y453_YF] | 3.31 | 0.599 | 0.724 | 0.812 | 0.822 | 0.587 | 1.35 | 0.591 | 0.604 | 1.34 | 0.588 | 2.24 | 0.746 | 0.799 | 0.629 | 0.438
6 | GLNKGYRMVVN [HINT1_Y94] | 0.531 | 0.307 | 0.392 | 0.388 | 0.449 | 0.318 | 0.696 | 0.375 | 0.436 | 0.403 | 0.303 | 0.461 | 0.34 | 0.665 | 0.503 | 0.424
7 | GLPINYTTRRI [LAMA2_Y2894] | 0.499 | 0.323 | 0.441 | 0.565 | 0.415 | 0.557 | 0.534 | 0.549 | 0.569 | 0.468 | 0.599 | 0.404 | 0.611 | 0.62 | 0.58 | 0.325
8 | GLRFGYGGLGG [KRTAP20-2_Y15_V17G_YF] | 0.655 | 0.455 | 0.467 | 0.509 | 0.53 | 0.368 | 0.739 | 0.394 | 0.376 | 0.581 | 0.456 | 0.455 | 0.419 | 1.05 | 0.612 | 0.593
9 | GMRHGYGVRQS [JPH2_Y141] | 0.451 | 0.38 | 0.373 | 0.355 | 0.405 | 0.328 | 0.556 | 0.369 | 0.36 | 0.457 | 0.384 | 0.668 | 0.326 | 1.53 | 1.41 | 1.15
10 | GNHISYYQSDG [CACNA1C_Y1757_V1755I] | 0.821 | 0.668 | 0.4 | 0.655 | 0.569 | 0.367 | 0.569 | 0.514 | 0.397 | 0.484 | 0.411 | 0.403 | 0.496 | 0.885 | 0.751 | 2.32
11 | GNHVSYFQSDG [CACNA1C_Y1757_YF] | 0.656 | 0.373 | 0.427 | 0.495 | 0.488 | 0.369 | 0.791 | 0.458 | 0.445 | 0.636 | 0.443 | 0.517 | 0.42 | 0.84 | 0.706 | 0.618
12 | GPQGFYSNKLV [PTPN14_Y506_V505F] | 0.529 | 0.307 | 0.387 | 0.369 | 0.406 | 0.409 | 0.441 | 0.348 | 0.393 | 0.445 | 0.641 | 0.586 | 0.45 | 0.792 | 0.708 | 0.465
13 | GQLIVYAPPEW [CNTN6_Y315_F314V] | 1.02 | 0.574 | 1.66 | 0.513 | 0.665 | 0.619 | 0.985 | 1.81 | 2.22 | 0.932 | 1.37 | 9.23 | 1.75 | 0.984 | 0.767 | 0.53
14 | GREEFYVHYVG [KAT8_Y90] | 1.16 | 0.583 | 0.67 | 0.711 | 1.02 | 0.428 | 1.16 | 0.518 | 0.563 | 1.02 | 0.422 | 0.788 | 0.486 | 0.81 | 2.83 | 0.644
15 | GRLFAYPDTHC [CAT_Y358_R363C] | 0.784 | 0.556 | 0.512 | 0.466 | 0.687 | 0.479 | 1.05 | 0.466 | 0.481 | 0.785 | 0.432 | 0.75 | 0.403 | 0.835 | 0.846 | 0.531
16 | GRQGIYTENER [GPR143_Y231] | 0.724 | 0.496 | 0.427 | 0.464 | 0.62 | 0.466 | 0.951 | 0.511 | 0.439 | 0.548 | 0.456 | 0.581 | 0.581 | 0.966 | 0.682 | 0.607
17 | GRSTFYWPSPR [GAGE12J_Y10_R13S_YF] | 0.643 | 0.541 | 0.693 | 0.665 | 0.708 | 0.399 | 0.697 | 0.466 | 0.559 | 0.713 | 6.43 | 0.726 | 0.551 | 1.49 | 1.64 | 1.26

Row | Sequence | phosphorylation enrichment [1] | phosphorylation enrichment [2] | phosphorylation enrichment [3] | phosphorylation enrichment [4] | phosphorylation enrichment [5] | phosphorylation enrichment [6] | phosphorylation enrichment [7] | phosphorylation enrichment [8] | phosphorylation enrichment [9] | phosphorylation enrichment [10] | phosphorylation enrichment [11] | phosphorylation enrichment [12] | phosphorylation enrichment [13] | SH2 binding enrichment [14] | SH2 binding enrichment [15] | SH2 binding enrichment [16]
18 | GRSTYYWPRPR [GAGE12J_Y10] | 0.697 | 0.474 | 0.507 | 0.537 | 0.481 | 0.504 | 0.444 | 0.524 | 0.615 | 0.543 | 0.748 | 0.93 | 0.665 | 0.668 | 0.386 | 0.419
19 | GRTPLYMDRQG [AGXT_Y194_G190R] | 0.575 | 0.452 | 0.443 | 0.396 | 0.415 | 0.344 | 0.498 | 0.495 | 0.702 | 0.472 | 0.432 | 0.473 | 0.528 | 0.891 | 1.12 | 0.542
20 | GRVFVYRLSEQ [ITGAE_Y551_YF] | 0.81 | 0.494 | 0.511 | 0.553 | 0.663 | 0.425 | 1.02 | 0.534 | 0.492 | 0.927 | 0.404 | 0.655 | 0.585 | 1.38 | 1.87 | 0.857
21 | GRVLGYGAFGK [FLT4_Y853] | 0.431 | 0.364 | 0.354 | 0.348 | 0.474 | 0.371 | 0.57 | 0.446 | 0.427 | 0.662 | 0.339 | 0.434 | 0.41 | 1.28 | 0.851 | 0.556
22 | GSERDYTYEEL [EIF2S2_Y174] | 1.36 | 0.602 | 0.645 | 0.535 | 0.711 | 0.6 | 1.13 | 1.09 | 1.21 | 1.29 | 0.707 | 0.977 | 1.63 | 0.969 | 0.761 | 0.944
23 | GSRGKYSSGFC [ATM_Y332_R337C] | 0.495 | 0.441 | 0.406 | 0.446 | 0.539 | 0.401 | 0.559 | 0.464 | 0.431 | 0.545 | 0.51 | 0.611 | 0.472 | 1.25 | 1.16 | 0.938
24 | GSSSSYGQHGS [HRNR_Y517] | 0.376 | 0.315 | 0.343 | 0.396 | 0.293 | 0.316 | 0.472 | 0.376 | 0.339 | 0.352 | 0.309 | 0.322 | 0.256 | 0.868 | 1.43 | 0.375
25 | GTFVIYVRFGG [FLNB_Y1687_YF] | 1.15 | 0.392 | 0.49 | 0.52 | 0.731 | 0.4 | 1.18 | 0.353 | 0.433 | 0.711 | 0.379 | 0.854 | 0.465 | 1.34 | 0.968 | 0.782
26 | GTSLIYWTLFT [G6PC3_Y214] | 1.82 | 3.96 | 2.09 | 5.01 | 4.45 | 1.68 | 1.97 | 8.42 | 6.02 | 3 | 5.81 | 11.2 | 6.99 | 0.746 | 0.652 | 0.457
27 | GVIKEYQIRQV [USH2A_Y3623] | 0.627 | 0.376 | 0.349 | 0.454 | 0.476 | 0.353 | 0.575 | 0.356 | 0.363 | 0.606 | 0.359 | 0.422 | 0.372 | 0.902 | 0.689 | 0.501
28 | GVRFIYTIDGS [DCX_Y105_YF] | 1.41 | 0.628 | 0.737 | 0.546 | 0.843 | 0.669 | 1.59 | 1.04 | 0.674 | 1.45 | 0.48 | 0.924 | 1.01 | 0.915 | 0.933 | 0.507
29 | GVRLYYRVMES [RB1_Y454] | 1.03 | 0.587 | 0.574 | 0.535 | 0.711 | 0.538 | 1.26 | 0.438 | 0.437 | 1.02 | 0.419 | 0.731 | 0.333 | 0.871 | 0.829 | 0.973
30 | GVSYIYTIDGS [DCX_Y105_R102S] | 1.11 | 0.618 | 0.498 | 0.494 | 0.711 | 0.412 | 1.08 | 5.77 | 2.71 | 0.944 | 1.28 | 0.663 | 4.85 | 0.794 | 16.3 | 0.726
31 | HAVYIYDICHV [TWNK_Y508_V507I] | 2.46 | 8.01 | 8.7 | 1.57 | 1.65 | 9.37 | 1.77 | 7.62 | 5.31 | 0.989 | 6.7 | 4.12 | 5.31 | 0.801 | 0.979 | 0.707
32 | HCHEGYILHGA [SVEP1_Y2921] | 1.45 | 1.27 | 0.746 | 0.722 | 0.768 | 0.45 | 1.78 | 0.888 | 0.827 | 1.94 | 0.945 | 1.61 | 1.12 | 1.01 | 1.21 | 0.812
33 | HEKFLYFLPAS [DYNC2H1_Y346] | 2.17 | 1.72 | 1.3 | 1.08 | 1.82 | 0.931 | 1.8 | 1.87 | 2.12 | 2.82 | 3.9 | 1.4 | 1.08 | 0.925 | 0.868 | 0.676
